# Laboratory results as given in patent publication US20250332297A1, “DLL3-SPECIFIC BINDING CONSTRUCTS AND THEIR USE IN RADIOTHERAPY” (MOLECULAR PARTNERS AG, priority 2024, published 2025).
# Where a chain is given by its changes, count along the chain named.
# T1: human DLL3 expressed on HEK293T-huDLL3 cells (Homo sapiens, UniProt Q9NYJ7)
# T1 construct: expressed in transfected cells; host or cells: HEK293T-hDLL3
# T1 sequence (Q9NYJ7 27-618): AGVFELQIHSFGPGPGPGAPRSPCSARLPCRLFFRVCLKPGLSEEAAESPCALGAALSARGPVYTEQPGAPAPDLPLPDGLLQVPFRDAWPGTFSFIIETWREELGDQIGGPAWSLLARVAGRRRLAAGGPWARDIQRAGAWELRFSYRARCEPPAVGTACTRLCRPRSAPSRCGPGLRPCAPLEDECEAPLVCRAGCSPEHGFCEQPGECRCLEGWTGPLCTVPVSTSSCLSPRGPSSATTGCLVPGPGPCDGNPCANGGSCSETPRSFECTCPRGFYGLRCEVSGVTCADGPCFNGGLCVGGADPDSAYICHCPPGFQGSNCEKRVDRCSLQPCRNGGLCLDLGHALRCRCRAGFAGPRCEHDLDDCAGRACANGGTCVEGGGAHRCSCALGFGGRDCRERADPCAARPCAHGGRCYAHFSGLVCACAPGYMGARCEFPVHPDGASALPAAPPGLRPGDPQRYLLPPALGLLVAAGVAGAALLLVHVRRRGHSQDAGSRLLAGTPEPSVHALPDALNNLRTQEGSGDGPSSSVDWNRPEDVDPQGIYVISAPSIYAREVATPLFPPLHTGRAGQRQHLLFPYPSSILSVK
# B1: MAM279: Two domain (2D) ankyrin repeat protein: serum albumin-specific domain (SEQ ID NO: 7), PT linker, DLL3-specific domain of MAM093 (protein)
# chain: DLGKKLLEAARAGQDDEVRELLKAGADVNAKDYFSHTPLHLAARNGHLKIVEVLLKAGADVNAKDFAGKTPLHLAADAGHLEIVEVLLKAGADVNAQDIFGKTPADIAADAGHEDIAEVLQKAAGSPTPTPTTPTPTPTTPTPTPTGSDLGKKLLAAAAQGQDDEVRELLKAGANVNAKDLFGYTPLHLAAWRGHLEIVEVLLKAGADVNAKDAAGETPLHLAAWFGHLEIVEVLLKAGADVNAQDLQGKTPADLAAKEGHEDIAEVLQKAA
# modifications: Ankyrin repeat protein (MAM279)
# B2: MAM283: Two domain (2D) ankyrin repeat protein: serum albumin-specific domain (SEQ ID NO: 7), PT linker, DLL3-specific domain (SEQ ID NO: 3) (protein)
# chain: B1 chain with Q160D, K171Q, N175D, K204E, K237E, L247V, K270Q
# modifications: Ankyrin repeat protein (MAM283)
# What was measured:
# hDLL3-MC38 tumor model = experiment: Biodistribution of radio-labelled DARPin conjugates in hDLL3-MC38 tumor model; assay type: in vivo, mouse; conditions: Pb-212 DOTAM conjugate 0.01 mg/kg (10 μCi) i.v., athymic nude mice, s.c. hDLL3-MC38
# From the text: hDLL3-MC38 tumor model. ATH mice were purchased from Envigo. General handling and maintenance of mice was done as described above for the NCI-H82 tumor model. hDLL3-MC38 cells were purchased from Biocytogen (Catalog No. 311448). […] Cells were quantified using Countess cell counter.
# Biodistribution study. […] Based on immunohistochemistry analyses, the hDLL3-MC38 tumors have a higher level of human DLL3 expression than the NCI-H82 tumors described in Example 3 (data not shown). Biodistribution was monitored at 1 h, 4 h and 24h post-injection. Mice were euthanized by CO2 inhalation and cervical dislocation.
# Mice were euthanized by CO2 inhalation and cervical dislocation.
# [1] = Pharmacokinetic analysis in WT BALBc mice (serum, ELISA); assay type: in vivo, mouse
# From the text: The pharmacokinetic (PK) properties of lead-labelled DARPin (MAM160, MAM279, MAM282, MAM283) conjugates were investigated in mice, including to determine the terminal half-life (or serum half-life) of these conjugates.
# In brief, DARPins MAM279, MAM283, MAM160 and MAM282 were conjugated to the chelator DOTAM, via a C-terminal Cysteine containing tag and a connector, as described in Example 3. The conjugates were then labelled with natural lead (Pb). The protein components of the conjugates corresponded to SEQ ID NOs: 15 to 18, respectively. These lead-labelled DARPin conjugates were injected i.v. at 1 mg/kg into WT BALBc mice. Serum was collected 2 min, 10 min, 30 min, 1 h, 4 h, 24 h, 48 h, and 72 h post-injection. DARPins were detected and measured by ELISA. The data were expressed as the DARPin concentration in serum (nmol/L).
# In brief, lead-labelled MAM279 conjugate, as described in Example 13, was injected i. at 0.1 mg/kg or at 1 mg/kg into the tail vein of WT BALBc mice. Serum was collected 2 min, 10 min, 30 min, 1 h, 4 h, 24 h, 48 h, and 72 h post-injection for MAM279 conjugate injected at 1 mg/kg, and 2 min, 30 min, 4 h, 24 h, 30 h, 48 h, 72 h, 96 h, and 168 h post-injection for MAM279 conjugate injected at 0.1 mg/kg. DARPins were detected and measured by ELISA. The data were expressed as the DARPin concentration in serum (nmol/L).
# In brief, natural lead-labelled MAM279 conjugate, as described in Example 13, was injected i.v. at different doses (0.001 mg/kg, 0.01 mg/kg, 0.1 mg/kg, or 1 mg/kg) into the tail vein of WT BALBc mice. Similarly, unconjugated Rova was injected iv. at 1 mg/kg into the tail vein of WT BALBc mice. Serum was collected 2 min, 10 min, 30 min, 1 h, 4 h, 24 h, 48 h, and 72 h post-injection for MAM279 conjugate injected at 1 mg/kg, and 2 min, 30 min, 4 h, 24 h, 30 h, 48 h, 72 h, 96 h, and 168 h post-injection for MAM279 conjugate injected at 0.1 mg/kg, 0.01 mg/kg and 0.001 mg/kg. Serum was collected 2 min, 30 min, 4 h, 24 h, 30 h, 48 h, 72 h, 96 h, and 168 h post-injection for Rova antibody injected at 1 mg/kg. DARPins and Rova were detected and measured by ELISA. Rova PK characteristics were calculated with time points between 4 h and 168 h and MAM279 conjugate PK characteristics were calculated with time points between 4 h and 72 h. The data were expressed as the DARPin or Rova concentration in serum (nmol/L). Results are shown in FIGS. 19A and 19B and Table 22.
# [2] = biological target: T1, human DLL3 expressed on HEK293T-huDLL3 cells; experiment: Cell binding titration on HEK293T-hDLL3 cells; assay type: cell-based; conditions: presence of human serum albumin (10 μM in FIG. 9 legend, 10 pM in the source), read-out: Cell binding EC50, with HSA
# [3] = 1 mg/kg i.v., MAM279 natural lead-labelled conjugate (time points 4-72 h), Rova unconjugated (4-168 h), Table 22
# [4] = 1 mg/kg i.v., MAM279 natural lead-labelled conjugate, Rova unconjugated, Table 22
# [5] = natural lead-labelled DOTAM conjugate 0.1 mg/kg i.v., Table 17
# [6] = natural lead-labelled DOTAM conjugate 1 mg/kg i.v., Tables 16, 17
# [7] = natural lead-labelled conjugate 0.001 mg/kg i.v., Table 22
# [8] = natural lead-labelled conjugate 0.01 mg/kg i.v., Table 22
# [9] = natural lead-labelled conjugate 0.1 mg/kg i.v., Table 22
molecule,measurement,setting,value
B1,Blood % ID/g,"hDLL3-MC38 tumor model; 4 h, Example 7",21.2 % ID/g
same,Kidneys % ID/g,"hDLL3-MC38 tumor model; 4 h, Example 7",14.3 % ID/g
same,Tumors % ID/g,"hDLL3-MC38 tumor model; 4 h, Example 7",20.6 % ID/g
same,Blood % ID/g,"hDLL3-MC38 tumor model; 4 h, Example 9",21 % ID/g
same,Kidneys % ID/g,"hDLL3-MC38 tumor model; 4 h, Example 9",14 % ID/g
same,T:K ratio,"hDLL3-MC38 tumor model; 4 h, Example 9",1.5
same,Tumors % ID/g,"hDLL3-MC38 tumor model; 4 h, Example 9",21 % ID/g
same,Blood % ID/g,"hDLL3-MC38 tumor model; 24 h, Example 7",8.1 % ID/g
same,Kidneys % ID/g,"hDLL3-MC38 tumor model; 24 h, Example 7",23.3 % ID/g
same,Tumors % ID/g,"hDLL3-MC38 tumor model; 24 h, Example 7",57.6 % ID/g
same,Blood % ID/g,"hDLL3-MC38 tumor model; 24 h, Example 9",8 % ID/g
same,Kidneys % ID/g,"hDLL3-MC38 tumor model; 24 h, Example 9",23 % ID/g
same,T:K ratio,"hDLL3-MC38 tumor model; 24 h, Example 9",2.5
same,Tumors % ID/g,"hDLL3-MC38 tumor model; 24 h, Example 9",58 % ID/g
same,AUCINF_pre,[1]; [3],29.3837 µM·h
same,AUClast,[1]; [3],23892.0 h*hr*nmol/L
same,HL_Lambda_z,[1]; [3],30.5 h
same,AUC_%Back_Ext_pre,[1]; [4],0%
same,AUC_%Extrap_Pred,[1]; [4],19%
same,Cl_pred,[1]; [4],1.2 mL/h/kg
same,Cmax,[1]; [4],1330 nM
same,Tmax,[1]; [4],1.98 min
same,Vss_pred,[1]; [4],0.048 L/kg
same,AUCINF_pred,[1]; [5],2.4051 µM·h
same,AUC_% Back_Ext_pred,[1]; [5],0%
same,AUC_% Extrap_pred,[1]; [5],3%
same,AUClast,[1]; [5],2343.4 nmol·h/L
same,CI_pred,[1]; [5],1.4 mL/h/kg
same,Cmax,[1]; [5],88.3 nM
same,HL_Lambda_z,[1]; [5],32.8 h
same,Tmax,[1]; [5],1.98 min
same,Vss_pred,[1]; [5],0.066 L/kg
same,AUCINF_pred,[1]; [6],29.3837 µM·h
same,AUC_% Back_Ext_pred,[1]; [6],0%
same,AUC_% Extrap_pred,[1]; [6],19%
same,AUClast,[1]; [6],23892.0 nmol·h/L
same,CI_pred,[1]; [6],1.2 mL/h/kg
same,Cmax,[1]; [6],1330 nM
same,HL_Lambda_z,[1]; [6],30.5 h
same,Tmax,[1]; [6],1.98 min
same,Vss_pred,[1]; [6],0.048 L/kg
same,AUCINF_pre,[1]; [7],0.007 µM·h
same,AUC_%Back_Ext_pre,[1]; [7],0%
same,AUC_%Extrap_Pred,[1]; [7],28%
same,AUClast,[1]; [7],5.0 h*hr*nmol/L
same,Cl_pred,[1]; [7],4.9 mL/h/kg
same,Cmax,[1]; [7],0.29 nM
same,HL_Lambda_z,[1]; [7],39.9 h
same,Tmax,[1]; [7],1.98 min
same,Vss_pred,[1]; [7],0.267 L/kg
same,AUCINF_pre,[1]; [8],0.101 µM·h
same,AUC_%Back_Ext_pre,[1]; [8],0%
same,AUC_%Extrap_Pred,[1]; [8],3%
same,AUClast,[1]; [8],98.3 h*hr*nmol/L
same,Cl_pred,[1]; [8],3.4 mL/h/kg
same,Cmax,[1]; [8],3.7 nM
same,HL_Lambda_z,[1]; [8],33.1 h
same,Tmax,[1]; [8],1.98 min
same,Vss_pred,[1]; [8],0.157 L/kg
same,AUCINF_pre,[1]; [9],2.4051 µM·h
same,AUC_%Back_Ext_pre,[1]; [9],0%
same,AUC_%Extrap_Pred,[1]; [9],3%
same,AUClast,[1]; [9],2343.4 h*hr*nmol/L
same,Cl_pred,[1]; [9],1.4 mL/h/kg
same,Cmax,[1]; [9],88.3 nM
same,HL_Lambda_z,[1]; [9],32.8 h
same,Tmax,[1]; [9],1.98 min
same,Vss_pred,[1]; [9],0.066 L/kg
same,EC50,[2],16.3 nM
B2,Blood % ID/g,"hDLL3-MC38 tumor model; 4 h, Example 7",21.1 % ID/g
same,Kidneys % ID/g,"hDLL3-MC38 tumor model; 4 h, Example 7",16.9 % ID/g
same,Tumors % ID/g,"hDLL3-MC38 tumor model; 4 h, Example 7",22.5 % ID/g
same,Blood % ID/g,"hDLL3-MC38 tumor model; 24 h, Example 7",0.8 % ID/g
same,Kidneys % ID/g,"hDLL3-MC38 tumor model; 24 h, Example 7",26.8 % ID/g
same,Tumors % ID/g,"hDLL3-MC38 tumor model; 24 h, Example 7",45.5 % ID/g
same,AUCINF_pred,[1]; [6],14.4943 µM·h
same,AUC_% Back_Ext_pred,[1]; [6],0%
same,AUC_% Extrap_pred,[1]; [6],2%
same,AUClast,[1]; [6],14243.6 nmol·h/L
same,CI_pred,[1]; [6],2.3 mL/h/kg
same,Cmax,[1]; [6],1440 nM
same,HL_Lambda_z,[1]; [6],12.7 h
same,Tmax,[1]; [6],1.98 min
same,Vss_pred,[1]; [6],0.035 L/kg
same,EC50,[2],18.4 nM
